Data reported in patent US20130136748A1 (Ablynx, published 2013).
Values joined by “and” are separate entries in the source; they are usually repeats but may differ in a detail not shown here. Identical values can stand only once. Blank lines part the entries; values can stand above or below the binder they belong to.

What was measured:
[1] = molecular target: T1, human HER3-Fc (R&D Systems, 348-RB) (human, UniProt P21860 20-643); test: HRG blocking alphascreen
T1 construct: Bought; also called hHER3-Fc; Fc-HER3; Fc part of the bought chimera not given, not described

[2] = molecular target: T1, human HER3-Fc (R&D Systems, 348-RB); test: HRG competition alphascreen
hHER3 full length [3] = molecular target: T2, hHER3 full length (human, UniProt P21860 20-1342); test: cell-based or functional assay
hHER3 full length [4] = molecular target: T2, hHER3 full length; test: cell-based or functional assay; remark: listed apart in the source
hHER3 full length [5] = molecular target: T2, hHER3 full length; test: cell-based or functional assay; remark: listed apart in the source
[6] = molecular target: T3, hHER3 ECD (human HER3 extracellular domain) (human, UniProt P21860 20-643); test: ELISA, coated hHER3-ECD
T3 construct: also called recombinant HER3-ECD

[7] = molecular target: T4, cHER3ECD (Maccaca fascicularis HER3 extracellular domain) (Macaca fascicularis, UniProt P21860 20-643 (human entry)); test: ELISA, coated cHER3-ECD
T4 construct: also called cyno HER3ECD; cyno HER3-ECD
T4 chain: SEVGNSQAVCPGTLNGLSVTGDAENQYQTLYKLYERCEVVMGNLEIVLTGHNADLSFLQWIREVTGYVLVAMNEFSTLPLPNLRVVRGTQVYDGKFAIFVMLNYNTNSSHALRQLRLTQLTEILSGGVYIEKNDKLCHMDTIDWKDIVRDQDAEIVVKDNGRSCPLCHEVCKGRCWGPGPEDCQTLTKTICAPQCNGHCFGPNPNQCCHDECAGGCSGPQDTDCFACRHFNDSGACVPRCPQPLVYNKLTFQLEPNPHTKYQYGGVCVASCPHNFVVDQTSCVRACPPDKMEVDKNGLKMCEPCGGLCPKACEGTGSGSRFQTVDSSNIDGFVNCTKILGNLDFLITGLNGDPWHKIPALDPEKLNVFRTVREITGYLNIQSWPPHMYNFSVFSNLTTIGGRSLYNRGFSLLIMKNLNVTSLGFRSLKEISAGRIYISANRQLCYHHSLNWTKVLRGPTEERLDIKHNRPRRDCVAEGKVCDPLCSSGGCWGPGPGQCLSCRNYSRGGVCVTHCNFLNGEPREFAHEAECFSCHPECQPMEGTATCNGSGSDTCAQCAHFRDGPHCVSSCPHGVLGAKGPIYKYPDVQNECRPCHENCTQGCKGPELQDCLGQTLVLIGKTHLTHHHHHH

[8] = molecular target: T3, hHER3 ECD (human HER3 extracellular …); test: SPR off rate on HER3-ECD
[9] = molecular target: T1, human HER3-Fc (R&D Systems, 348-RB); test: HRG competition alphascreen; remark: listed apart in the source
[10] = molecular target: T1, human HER3-Fc (R&D Systems, 348-RB); test: 34C07 competition alphascreen
hHER3 full length [11] = molecular target: T2, hHER3 full length; test: FACS, 400 nM, competitor 04C07-biotin
hHER3 full length [12] = molecular target: T2, hHER3 full length; test: FACS, 400 nM, competitor 04F10-biotin
hHER3 full length [13] = molecular target: T2, hHER3 full length; test: FACS, 400 nM, competitor 17C08-biotin
hHER3 full length [14] = molecular target: T2, hHER3 full length; test: FACS, 400 nM, competitor 18E08-biotin
hHER3 full length [15] = molecular target: T2, hHER3 full length; test: FACS, 400 nM, competitor 21B02-biotin
hHER3 full length [16] = molecular target: T2, hHER3 full length; test: FACS, 400 nM, competitor 23F05-biotin
[17] = molecular target: T3, hHER3 ECD (human HER3 extracellular …); test: off rate on recombinant HER3-ECD, periplasmic extract
[18] = molecular target: T1, human HER3-Fc (R&D Systems, 348-RB); test: SPR, HER3-Fc captured; heterogenous curve, main interaction (84%)

fold lower potency than parental 04C07 [1]: 18 fold
IC50 [2]: 4.91 nM
B1: HER3MS00045 (VHH)
VHH: EVQLVESGGGLVQPGGSLRLSCAASGFTFSSYPMSWVRQAPGKGPEWVSTVSPGGITTSYADSVKGRFTISRDNSKNTLYLQMNSLRPEDTAVYYCARDLNNRGQGTLVTVSS
notes: 04C07 basic + A46E + L93A; also called HER3MS0045

IC50, HRG1-β1 induced pHER3, MCF-7 (hHER3 full length [3]): 1.89e-08 M
IC50, HRG1-β1 induced pHER3, MDA-MB468 (hHER3 full length [3]): 1.07e-08 M
IC50, HRG1-β1 induced pAkt, MCF-7 (hHER3 full length [4]): 4.99e-08 M
IC50, HRG1-β1 induced pERK1/2, MCF-7 (hHER3 full length [4]): 1e-07 M
IC50 pHER3 blocking, MCF7 (hHER3 full length [5]): 2.49e-08 M
EC50 [6]: 0.46 nM
EC50 [7]: 0.43 nM
koff [8]: 0.0003 s⁻¹ and 0.00031 s⁻¹
% inhibition [9]: 65.2%
IC50 [9]: 0.815 nM
IC50 [10]: 5.5 nM
% competition (hHER3 full length [11]): 0%
% competition (hHER3 full length [12]): 0%
% competition (hHER3 full length [13]): 56%
% competition (hHER3 full length [14]): 99%
% competition (hHER3 full length [15]): 6%
% competition (hHER3 full length [16]): 10%
koff [17]: 0.00037 s⁻¹ and 0.00039 s⁻¹
Kd [18]: 14 nM
kon [18]: 18000 M⁻¹ s⁻¹
B2: 34C07 (VHH)
VHH: EVQLVESGGGLVQPGGSLGLSCVASGSIFRINAMAWYRQAPGKQRELVAEITAGGSTNYADSVKGRFTISVDNAWNTLYLQMNSLKVEDTAVYYCNLDHYTTWDRRSAYWGQGTQVTVSS
notes: c-myc, His6-tagged form as expressed; also called 34C7; HER3MS34C07
